Measurements published in patent US20240218374.

Molecular target: Spike S1 & S2 ECD (SARS-CoV-2) (UniProt P0DTC2)
Test: filter
[1] = Y=Tyr-dU, p=Nap-dC, SB18T0.01, 37 C

Sequence ANNANGNGNNNGANNGNNNGGANG [26874-29_25] has a Kd [1] of 1.8 nM.
In the case of ANNANGNGNNNGANNGNNNGGANGG [26874-29_23], the Kd [1] is reported as 1.6 nM.
With “GGANANNANGNGNNNGANNGNNNGGANG [26874-29_21]” the Kd [1] was 2.2 nM.
“GGGACANNANGNGNNNGANNGNNNGGANG [26874-29_127]” showed a Kd (c3 (not defined) at 5, other dU Tyr-dU, dC Nap-dC, SB18T0.01, 37 C) of 0.28 nM.
For “GGGAHANNANGNGNNNGANNGNNNGGANG [26874-29_96]”, the Kd (ThdU at 5, other dU Tyr-dU, dC Nap-dC, SB18T0.01, 37 C) was 0.27 nM.
Work on “GGGANANHANGNGNNNGANNGNNNGGANG [26874-29_98]” yielded a Kd (ThdU at 8, other dU Tyr-dU, dC Nap-dC, SB18T0.01, 37 C) of 0.22 nM.
In the case of “GGGANANNANGNGHNNGANNGNNNGGANG [26874-29_100]”, the Kd (ThdU at 14 as printed (same as _102; position 10 probably meant), other dU Tyr-dU, dC Nap-dC, SB18T0.01, 37 C) is reported as 0.49 nM.
“GGGANANNANGNGHNNGANNGNNNGGANG [26874-29_102]” showed a Kd (ThdU at 14, other dU Tyr-dU, dC Nap-dC, SB18T0.01, 37 C) of 0.45 nM.
“GGGANANNANGNGNNNGANNGNHNGGANG [26874-29_104]” gave a Kd (ThdU at 23, other dU Tyr-dU, dC Nap-dC, SB18T0.01, 37 C) of 0.59 nM.
“GGGANANNANGNGNNNGANNGNNNGGANG [26874-29_47]” gave a Kd (NapdU at 5, other dU Tyr-dU, dC Nap-dC, SB18T0.01, 37 C) of 0.31 nM.
“GGGANANNANGNGNNNGANNGNNNGGANG [26874-29_48]” gave a Kd (FBndU at 8, other dU Tyr-dU, dC Nap-dC, SB18T0.01, 37 C) of 0.26 nM.
With “GGGANANNANGNGNNNGANNGNNNGGANG [26874-29_49]” the Kd (NapdU at 8, other dU Tyr-dU, dC Nap-dC, SB18T0.01, 37 C) was 0.4 nM.
Sequence “GGGANANNANGNGNNNGANNGNNNGGANG [26874-29_50]” has a Kd (FBndU at 10, other dU Tyr-dU, dC Nap-dC, SB18T0.01, 37 C) of 0.31 nM.
“GGGANANNANGNGNNNGANNGNNNGGANG [26874-29_51]” was tested, and the Kd (NapdU at 10, other dU Tyr-dU, dC Nap-dC, SB18T0.01, 37 C) was 0.36 nM.
Sequence “GGGANANNANGNGNNNGANNGNNNGGANG [26874-29_52]” has a Kd (Y=Tyr-dU, p=Nap-dC, position 14 FBn-dU, Kd/Kd_20 0.27) of 0.11 nM.
“GGGANANNANGNGNNNGANNGNNNGGANG [26874-29_53]” showed a Kd (NapdU at 14, other dU Tyr-dU, dC Nap-dC, SB18T0.01, 37 C) of 0.2 nM.
Work on “GGGANANNANGNGNNNGANNGNNNGGANG [26874-29_54]” yielded a Kd (FBndU at 23, other dU Tyr-dU, dC Nap-dC, SB18T0.01, 37 C) of 0.21 nM.
With “GGGANANNANGNGNNNGANNGNNNGGANG [26874-29_55]” the Kd (NapdU at 23, other dU Tyr-dU, dC Nap-dC, SB18T0.01, 37 C) was 0.25 nM.
“GGGANANNANGNGNNNGANNGNNNGGANG [26874-29_56]” was tested, and the Kd (TrpdU at 5, other dU Tyr-dU, dC Nap-dC, SB18T0.01, 37 C) was 0.54 nM.
Sequence “GGGANANNANGNGNNNGANNGNNNGGANG [26874-29_57]” has a Kd (BndU at 5, other dU Tyr-dU, dC Nap-dC, SB18T0.01, 37 C) of 0.21 nM.
“GGGANANNANGNGNNNGANNGNNNGGANG [26874-29_58]” showed a Kd (TrpdU at 8, other dU Tyr-dU, dC Nap-dC, SB18T0.01, 37 C) of 0.27 nM.
“GGGANANNANGNGNNNGANNGNNNGGANG [26874-29_59]” gave a Kd (BndU at 8, other dU Tyr-dU, dC Nap-dC, SB18T0.01, 37 C) of 0.18 nM.
Work on “GGGANANNANGNGNNNGANNGNNNGGANG [26874-29_60]” yielded a Kd (Y=Tyr-dU, p=Nap-dC, position 10 Trp-dU, Kd/Kd_20 0.24) of 0.098 nM.
In the case of “GGGANANNANGNGNNNGANNGNNNGGANG [26874-29_61]”, the Kd (BndU at 10, other dU Tyr-dU, dC Nap-dC, SB18T0.01, 37 C) is reported as 0.31 nM.
“GGGANANNANGNGNNNGANNGNNNGGANG [26874-29_62]” gave a Kd (Y=Tyr-dU, p=Nap-dC, position 14 Trp-dU, Kd/Kd_20 0.30) of 0.13 nM.
“GGGANANNANGNGNNNGANNGNNNGGANG [26874-29_63]” showed a Kd (BndU at 14, other dU Tyr-dU, dC Nap-dC, SB18T0.01, 37 C) of 0.16 nM.
With “GGGANANNANGNGNNNGANNGNNNGGANG [26874-29_64]” the Kd (TrpdU at 23, other dU Tyr-dU, dC Nap-dC, SB18T0.01, 37 C) was 0.27 nM.
“GGGANANNANGNGNNNGANNGNNNGGANG [26874-29_65]” showed a Kd (BndU at 23, other dU Tyr-dU, dC Nap-dC, SB18T0.01, 37 C) of 0.28 nM.
For “GGGANANNANGNGNNNGANNGNNNGGANG [26874-29_66]”, the Kd (PBndU at 5, other dU Tyr-dU, dC Nap-dC, SB18T0.01, 37 C) was 0.19 nM.
In the case of “GGGANANNANGNGNNNGANNGNNNGGANG [26874-29_68]”, the Kd (PBndU at 8, other dU Tyr-dU, dC Nap-dC, SB18T0.01, 37 C) is reported as 0.21 nM.
Sequence “GGGANANNANGNGNNNGANNGNNNGGANG [26874-29_70]” has a Kd (PBndU at 10 (printed sequence lacks Y at 10, F^ in place), other dU Tyr-dU, dC Nap-dC, SB18T0.01, 37 C) of 0.2 nM.
“GGGANANNANGNGNNNGANNGNNNGGANG [26874-29_72]” showed a Kd (Y=Tyr-dU, p=Nap-dC, position 14 PBn-dU, Kd/Kd_20 0.33) of 0.14 nM.
“GGGANANNANGNGNNNGANNGNNNGGANG [26874-29_74]” was tested, and the Kd (PBndU at 23, other dU Tyr-dU, dC Nap-dC, low plateau, very faint spots) was 0.46 nM.
Work on “GGGANANNANGNGNNNGANNGNNNGGANG [26874-29_76]” yielded a Kd (NEdU at 5, other dU Tyr-dU, dC Nap-dC, SB18T0.01, 37 C) of 0.46 nM.
“GGGANANNANGNGNNNGANNGNNNGGANG [26874-29_77]” gave a Kd (Y=Tyr-dU, p=Nap-dC, position 5 PE-dU, Kd/Kd_20 0.32) of 0.13 nM.
With “GGGANANNANGNGNNNGANNGNNNGGANG [26874-29_78]” the Kd (NEdU at 8, other dU Tyr-dU, dC Nap-dC, SB18T0.01, 37 C) was 0.24 nM.
With “GGGANANNANGNGNNNGANNGNNNGGANG [26874-29_79]” the Kd (PEdU at 8, other dU Tyr-dU, dC Nap-dC, SB18T0.01, 37 C) was 0.17 nM.
In the case of “GGGANANNANGNGNNNGANNGNNNGGANG [26874-29_80]”, the Kd (NEdU at 10, other dU Tyr-dU, dC Nap-dC, SB18T0.01, 37 C) is reported as 0.16 nM.
“GGGANANNANGNGNNNGANNGNNNGGANG [26874-29_81]” gave a Kd (PEdU at 10, other dU Tyr-dU, dC Nap-dC, SB18T0.01, 37 C) of 0.16 nM.
“GGGANANNANGNGNNNGANNGNNNGGANG [26874-29_82]” gave a Kd (NEdU at 14, other dU Tyr-dU, dC Nap-dC, SB18T0.01, 37 C) of 0.18 nM.
In the case of “GGGANANNANGNGNNNGANNGNNNGGANG [26874-29_83]”, the Kd (PEdU at 14, other dU Tyr-dU, dC Nap-dC, SB18T0.01, 37 C) is reported as 0.19 nM.
“GGGANANNANGNGNNNGANNGNNNGGANG [26874-29_84]” was tested, and the Kd (NEdU at 23, other dU Tyr-dU, dC Nap-dC, SB18T0.01, 37 C) was 0.44 nM.
“GGGANANNANGNGNNNGANNGNNNGGANG [26874-29_85]” gave a Kd (PEdU at 23, other dU Tyr-dU, dC Nap-dC, low plateau) of 0.29 nM.
With “GGGANANNANGNGNNNGANNGNNNGGANG [26874-29_86]” the Kd (BFdU at 5, other dU Tyr-dU, dC Nap-dC, SB18T0.01, 37 C) was 0.21 nM.
For “GGGANANNANGNGNNNGANNGNNNGGANG [26874-29_87]”, the Kd (PPdU at 5, other dU Tyr-dU, dC Nap-dC, SB18T0.01, 37 C) was 0.25 nM.
With “GGGANANNANGNGNNNGANNGNNNGGANG [26874-29_88]” the Kd (BFdU at 8, other dU Tyr-dU, dC Nap-dC, SB18T0.01, 37 C) was 0.19 nM.
“GGGANANNANGNGNNNGANNGNNNGGANG [26874-29_89]” was tested, and the Kd (PPdU at 8, other dU Tyr-dU, dC Nap-dC, SB18T0.01, 37 C) was 0.2 nM.
Work on “GGGANANNANGNGNNNGANNGNNNGGANG [26874-29_90]” yielded a Kd (Y=Tyr-dU, p=Nap-dC, position 10 BF-dU, Kd/Kd_20 0.33) of 0.14 nM.
For “GGGANANNANGNGNNNGANNGNNNGGANG [26874-29_91]”, the Kd (BFdU at 14 (Table 6B says PPdU), other dU Tyr-dU, dC Nap-dC, SB18T0.01, 37 C) was 0.17 nM.
“GGGANANNANGNGNNNGANNGNNNGGANG [26874-29_92]” gave a Kd (PPdU at 10 (Table 6B says BFdU), other dU Tyr-dU, dC Nap-dC, SB18T0.01, 37 C) of 0.18 nM.
In the case of “GGGANANNANGNGNNNGANNGNNNGGANG [26874-29_93]”, the Kd (PPdU at 14, other dU Tyr-dU, dC Nap-dC, SB18T0.01, 37 C) is reported as 0.24 nM.
“GGGANANNANGNGNNNGANNGNNNGGANG [26874-29_94]” showed a Kd (BFdU at 23, other dU Tyr-dU, dC Nap-dC, SB18T0.01, 37 C) of 0.48 nM.
“GGGANANNANGNGNNNGANNGNNNGGANG [26874-29_95]” was tested, and the Kd (PPdU at 23, other dU Tyr-dU, dC Nap-dC, SB18T0.01, 37 C) was 0.42 nM.
“GGGANANNANGNGNNNGANNGNNNGGANG [26874-29_97]” gave a Kd (ThrdU at 5, other dU Tyr-dU, dC Nap-dC, SB18T0.01, 37 C) of 0.29 nM.
In the case of “GGGANANNANGNGNNNGANNGNNNGGANG [26874-29_99]”, the Kd (ThrdU at 8, other dU Tyr-dU, dC Nap-dC, SB18T0.01, 37 C) is reported as 0.24 nM.
“GGGANANNANGNGNNNGANNGNNNGGANG [26874-29_101]” was tested, and the Kd (ThrdU at 10, other dU Tyr-dU, dC Nap-dC, SB18T0.01, 37 C) was 0.36 nM.
Work on “GGGANANNANGNGNNNGANNGNNNGGANG [26874-29_103]” yielded a Kd (ThrdU at 14, other dU Tyr-dU, dC Nap-dC, SB18T0.01, 37 C) of 0.49 nM.
Work on “GGGANANNANGNGNNNGANNGNNNGGANG [26874-29_105]” yielded a Kd (ThrdU at 23, other dU Tyr-dU, dC Nap-dC, SB18T0.01, 37 C) of 0.79 nM.
For “GGGANANNANGNGNNNGANNGNNNGGANG [26874-29_106]”, the Kd (MOEdU at 5, other dU Tyr-dU, dC Nap-dC, SB18T0.01, 37 C) was 0.66 nM.
Sequence “GGGANANNANGNGNNNGANNGNNNGGANG [26874-29_107]” has a Kd (2NapdU at 5, other dU Tyr-dU, dC Nap-dC, SB18T0.01, 37 C) of 0.49 nM.
“GGGANANNANGNGNNNGANNGNNNGGANG [26874-29_108]” showed a Kd (MOEdU at 8, other dU Tyr-dU, dC Nap-dC, SB18T0.01, 37 C) of 0.72 nM.
For “GGGANANNANGNGNNNGANNGNNNGGANG [26874-29_109]”, the Kd (2NapdU at 8, other dU Tyr-dU, dC Nap-dC, SB18T0.01, 37 C) was 0.48 nM.
For “GGGANANNANGNGNNNGANNGNNNGGANG [26874-29_110]”, the Kd (MOEdU at 10, other dU Tyr-dU, dC Nap-dC, SB18T0.01, 37 C) was 0.43 nM.
